In US20120039879A1:

Tests used:
ROBO1 [1] = target: ROBO1 (UniProt Q9Y6N7); experiment: ITC, ROBO1 titrated into B5209B mouse-scFv-mcSA414 (3.7 µM), 25° C., PBS
ROBO1 [2] = target: ROBO1 (UniProt Q9Y6N7); experiment: ITC, compared with the scFv alone
ROBO1 [3] = target: ROBO1 (UniProt Q9Y6N7); experiment: ITC, ROBO1 titrated into B5209B mouse-scFv-mcSA414 (3.7 µM), 25° C., PBS; ITC, 25 C, PBS, ROBO1 titrated into the scFv-mcSA414 tetramer (3.7 uM)
ROBO1 [4] = target: ROBO1 (UniProt Q9Y6N7); experiment: ITC, one-site model (OneSites): ROBO1 injected into B5209B mouse-scFv-mcSA414 (3.7 uM) at 25 C in PBS

binding ratio (molecules of ROBO1 per tetramer) (ROBO1 [1]): 2
enthalpy change (ΔH) (ROBO1 [1]): -3.85 kcal/mol
entropy change (ΔS) (ROBO1 [1]): -22 J/mol·K
reduction in affinity compared with scFV (ROBO1 [2]): 10 fold
ΔS value relative to scFV (ratio to scFV) (ROBO1 [2]): 0.025
Kd (ROBO1 [3]): 33 nM
N (fitted stoichiometry, ROBO1 per scFv-mcSA414 in the cell) (ROBO1 [4]): 0.334
B1: B5209B mouse-scFv-mcSA414 (protein)
chain: MAEVQLVESGGGVVQPGGSLKLSCAASGFTFSTYDMSWVRQTPDKRLELVATINSNGGSTYYPDSVKGRFTSSRDNAKNILYLQMSSLKSEDTAMYYCAREALLRPPYYALDYWGQGTSVTVSSAGGGGSGGGGSGGGGSDILDIQMTQSPASLSASVGETVTITCGASENIYGALTWYQRKQGKSPQLLIYGAINLADDKSSRFSGSGSGRQYSLKISSLHPDDVATYYCQNVLSTPFTFGSGTKLEIKAAGSSGSGSAAEAGITGTWSNQLGSTFIVTAGADGALTGTYESAVGNAESRYVLTGRYDSAPATDGSGTALGWTVAWKNNSKNAHSATTWSGQYVGGADAKINTQWLLTSGTTQANAWKSTLVGHDTFTKVKPSAASGARHHHHHH
